Test results published in paper PMC13482807.

Biological target: Microtubule star (Mts) L186A (Drosophila) (UniProt P23696)
Assay: co-IP; S2 cells transfected with the tagged constructs; lysis in 50 mM Tris pH 7.5, 150 mM NaCl, 1% Triton X-100, 10% glycerol, 1 mM EDTA with phosphatase and protease inhibitors; FLAG-tagged proteins on anti-FLAG M2 agarose 1-2 h at 4 °C, eluted with 3x FLAG peptide; immunoblot (Figures EV3G,H, EV5C-E, 5B-D)

Sequence of UniProt P23696 (P23696 whole entry L186A): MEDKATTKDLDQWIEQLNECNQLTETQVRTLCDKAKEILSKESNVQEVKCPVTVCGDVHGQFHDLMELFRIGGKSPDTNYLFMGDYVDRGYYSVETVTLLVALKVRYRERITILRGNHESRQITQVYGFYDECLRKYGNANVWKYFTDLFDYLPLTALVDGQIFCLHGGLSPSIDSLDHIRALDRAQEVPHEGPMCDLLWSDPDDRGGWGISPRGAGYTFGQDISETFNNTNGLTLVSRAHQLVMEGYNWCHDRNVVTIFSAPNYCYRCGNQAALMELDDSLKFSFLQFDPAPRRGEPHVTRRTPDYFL

Q: Which reduction of binding relative to Mts^WT does the source give for “Connector of kinase to AP-1 (Cka), PP2A B''' regulatory subunit (natural protein)” here?
A: 50%
